Experimental findings from patent US20200079833A1 (AstraZeneca / MedImmune, published 2020) are described below.

The chains are these.
B1: SEQ ID NO 166 (peptide)
peptide: H[Aib]EGS[αMeF]TSDV[αMeS]S[αMeF]LEGEAA[αMeK]E[αMeF]IA[αMeF]VVK([γGlu-γGlu-γGlu-Lauroyl])GG-NH2
modifications: N-terminus assumed
SMILES: CCCCCCCCCCCC(=O)N[C@@H](CCC(=O)N[C@@H](CCC(=O)N[C@@H](CCC(=O)NCCCC[C@H](NC(=O)[C@@H](NC(=O)[C@@H](NC(=O)[C@](C)(Cc1ccccc1)NC(=O)[C@H](C)NC(=O)[C@@H](NC(=O)[C@](C)(Cc1ccccc1)NC(=O)[C@H](CCC(=O)O)NC(=O)[C@](C)(CCCCN)NC(=O)[C@H](C)NC(=O)[C@H](C)NC(=O)[C@H](CCC(=O)O)NC(=O)CNC(=O)[C@H](CCC(=O)O)NC(=O)[C@H](CC(C)C)NC(=O)[C@](C)(Cc1ccccc1)NC(=O)[C@H](CO)NC(=O)[C@](C)(CO)NC(=O)[C@@H](NC(=O)[C@H](CC(=O)O)NC(=O)[C@H](CO)NC(=O)[C@@H](NC(=O)[C@](C)(Cc1ccccc1)NC(=O)[C@H](CO)NC(=O)CNC(=O)[C@H](CCC(=O)O)NC(=O)C(C)(C)NC(=O)[C@@H](N)Cc1c[nH]cn1)[C@@H](C)O)C(C)C)[C@@H](C)CC)C(C)C)C(C)C)C(=O)NCC(=O)NCC(N)=O)C(=O)O)C(=O)O)C(=O)O
B2: SEQ ID NO 169 (peptide)
peptide: H[Aib]EGS[αMeF]TSDV[αMeS]S[αMeF]LEGEAA[αMeK]E[αMeF]IA[αMeF]VVK([Ahx-Ahx-Ahx-Lauroyl])GG-NH2
modifications: N-terminus assumed
SMILES: CCCCCCCCCCCC(=O)NCCCCCC(=O)NCCCCCC(=O)NCCCCCC(=O)NCCCC[C@H](NC(=O)[C@@H](NC(=O)[C@@H](NC(=O)[C@](C)(Cc1ccccc1)NC(=O)[C@H](C)NC(=O)[C@@H](NC(=O)[C@](C)(Cc1ccccc1)NC(=O)[C@H](CCC(=O)O)NC(=O)[C@](C)(CCCCN)NC(=O)[C@H](C)NC(=O)[C@H](C)NC(=O)[C@H](CCC(=O)O)NC(=O)CNC(=O)[C@H](CCC(=O)O)NC(=O)[C@H](CC(C)C)NC(=O)[C@](C)(Cc1ccccc1)NC(=O)[C@H](CO)NC(=O)[C@](C)(CO)NC(=O)[C@@H](NC(=O)[C@H](CC(=O)O)NC(=O)[C@H](CO)NC(=O)[C@@H](NC(=O)[C@](C)(Cc1ccccc1)NC(=O)[C@H](CO)NC(=O)CNC(=O)[C@H](CCC(=O)O)NC(=O)C(C)(C)NC(=O)[C@@H](N)Cc1c[nH]cn1)[C@@H](C)O)C(C)C)[C@@H](C)CC)C(C)C)C(C)C)C(=O)NCC(=O)NCC(N)=O
B3: SEQ ID NO 168 (peptide)
peptide: H[Aib]EGS[αMeF]TSDV[αMeS]S[αMeF]LEGEAA[αMeK]E[αMeF]IA[αMeF]VVK([Ahx-Ahx-Lauroyl])GG-NH2
modifications: N-terminus assumed
SMILES: CCCCCCCCCCCC(=O)NCCCCCC(=O)NCCCCCC(=O)NCCCC[C@H](NC(=O)[C@@H](NC(=O)[C@@H](NC(=O)[C@](C)(Cc1ccccc1)NC(=O)[C@H](C)NC(=O)[C@@H](NC(=O)[C@](C)(Cc1ccccc1)NC(=O)[C@H](CCC(=O)O)NC(=O)[C@](C)(CCCCN)NC(=O)[C@H](C)NC(=O)[C@H](C)NC(=O)[C@H](CCC(=O)O)NC(=O)CNC(=O)[C@H](CCC(=O)O)NC(=O)[C@H](CC(C)C)NC(=O)[C@](C)(Cc1ccccc1)NC(=O)[C@H](CO)NC(=O)[C@](C)(CO)NC(=O)[C@@H](NC(=O)[C@H](CC(=O)O)NC(=O)[C@H](CO)NC(=O)[C@@H](NC(=O)[C@](C)(Cc1ccccc1)NC(=O)[C@H](CO)NC(=O)CNC(=O)[C@H](CCC(=O)O)NC(=O)C(C)(C)NC(=O)[C@@H](N)Cc1c[nH]cn1)[C@@H](C)O)C(C)C)[C@@H](C)CC)C(C)C)C(C)C)C(=O)NCC(=O)NCC(N)=O

Starred links: 1 amine or outer side, 2 acyl side, 3 side chain; linkers in the order of their positions; H or OH if unused. Non-standard residues stand in square brackets, D forms with d. Groups on a side chain read outwards from the residue. Primed or numbered codes have the meaning given here. No end group written: not given here. *: point of attachment. Dodecylbenzoate = dodecylbenzoyl lipid group; γGlu = O=C(O)[C@H](CCC(=O)[*:2])N[*:1]; Stearoyl = CCCCCCCCCCCCCCCCCC(=O)*; αMeF = C[C@](N)(Cc1ccccc1)C(=O)O; αMeK = C[C@](N)(CCCCN)C(=O)O; Lauroyl = CCCCCCCCCCCC(=O)*; αMeS = C[C@](N)(CO)C(=O)O; PEG2′ = not defined here; Aib = CC(C)(N)C(=O)O; Ahx = NCCCCCC(=O)O

The test has as its target T1, GLP-1R (INS1e assay) (UniProt P32301 22-463, limits assumed).
T1 sequence (looked up): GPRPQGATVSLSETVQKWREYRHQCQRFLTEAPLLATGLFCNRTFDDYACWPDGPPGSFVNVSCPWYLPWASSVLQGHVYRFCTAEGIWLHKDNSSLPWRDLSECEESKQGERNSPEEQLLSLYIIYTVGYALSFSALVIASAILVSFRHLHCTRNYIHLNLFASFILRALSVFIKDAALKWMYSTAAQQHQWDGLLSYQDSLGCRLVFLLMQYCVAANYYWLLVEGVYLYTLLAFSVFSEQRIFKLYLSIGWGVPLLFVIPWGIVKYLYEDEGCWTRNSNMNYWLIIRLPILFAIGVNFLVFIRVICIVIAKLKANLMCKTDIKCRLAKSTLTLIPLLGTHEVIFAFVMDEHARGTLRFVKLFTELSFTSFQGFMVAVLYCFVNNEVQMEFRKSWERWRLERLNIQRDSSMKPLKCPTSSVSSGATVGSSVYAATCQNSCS
As to the kind of experiment: cell-based or functional assay.
H[Aib]EGS[αMeF]TSDV[αMeS]S[αMeF]LEGEAA[αMeK]E[αMeF]IA[αMeF]VVK([PEG2′-Dodecylbenzoate])GG-NH2 [SEQ ID NO 179]: the “INS1e assay EC50 GLP-1 R n1” value was determined as 336 pM, the “INS1e assay EC50 GLP-1 R n2” value was 345 pM and the “INS1e assay EC50 Mean pM GLP-1R” value was determined as 340 pM.

Regarding H[Aib]EGS[αMeF]TSDV[αMeS]S[αMeF]LEGEAA[αMeK]E[αMeF]IA[αMeF]VVK([PEG2′-PEG2′-Dodecylbenzoate])GG-NH2 [SEQ ID NO 180], the “INS1e assay EC50 GLP-1 R n1” value is 67.8 pM, the “INS1e assay EC50 GLP-1 R n2” value turned out to be 50.6 pM and the “INS1e assay EC50 Mean pM GLP-1R” value was found to be 59.2 pM.

As for B1, the “INS1e assay EC50 GLP-1 R n1” value was found to be 233 pM, the “INS1e assay EC50 GLP-1 R n2” value was found to be 687 pM and the “INS1e assay EC50 Mean pM GLP-1R” value amounted to 460 pM.

On to H[Aib]EGS[αMeF]TSDV[αMeS]S[αMeF]LEGEAA[αMeK]E[αMeF]IA[αMeF]VVK([PEG2′-PEG2′-Lauroyl])GG-NH2 [SEQ ID NO 171], for which the “INS1e assay EC50 GLP-1 R n1” value is 81.7 pM, the “INS1e assay EC50 GLP-1 R n2” value came out at 175 pM and the “INS1e assay EC50 Mean pM GLP-1R” value was determined as 128 pM.

Regarding H[Aib]EGS[αMeF]TSDV[αMeS]S[αMeF]LEGEAA[αMeK]E[αMeF]IA[αMeF]VVK([PEG2′-Lauroyl])GG-NH2 [SEQ ID NO 170], the “INS1e assay EC50 GLP-1 R n1” value is 548 pM, the “INS1e assay EC50 GLP-1 R n2” value was 376 pM and the “INS1e assay EC50 Mean pM GLP-1R” value was found to be 462 pM.

Turning to H[Aib]EGS[αMeF]TSDV[αMeS]S[αMeF]LEGEAA[αMeK]E[αMeF]IA[αMeF]VVK([Ahx-Ahx-Ahx-Dodecylbenzoate])GG-NH2 [SEQ ID NO 178], the “INS1e assay EC50 GLP-1 R n1” value came to 310 pM, the “INS1e assay EC50 GLP-1 R n2” value was 258 pM and the “INS1e assay EC50 Mean pM GLP-1R” value was found to be 284 pM.

As to H[Aib]EGS[αMeF]TSDV[αMeS]S[αMeF]LEGEAA[αMeK]E[αMeF]IA[αMeF]VVK([PEG2′-PEG2′-PEG2′-Dodecylbenzoate])GG-NH2 [SEQ ID NO 181], the “INS1e assay EC50 GLP-1 R n1” value is 45.3 pM, the “INS1e assay EC50 GLP-1 R n2” value amounted to 114 pM and the “INS1e assay EC50 Mean pM GLP-1R” value was found to be 79.7 pM.

On to H[Aib]EGS[αMeF]TSDV[αMeS]S[αMeF]LEGEAAK([PEG2′-PEG2′-PEG2′-Stearoyl])E[αMeF]IA[αMeF]VV[αMeK]GG-NH2 [SEQ ID NO 154], for which the “INS1e assay EC50 GLP-1 R n1” value is 32.3 pM, the “INS1e assay EC50 GLP-1 R n2” value was found to be 17.1 pM and the “INS1e assay EC50 Mean pM GLP-1R” value is 25 pM.

On to H[Aib]EGS[αMeF]TSDV[αMeS]S[αMeF]LEGEAA[αMeK]E[αMeF]IA[αMeF]VVK([PEG2′-PEG2′-PEG2′-Lauroyl])GG-NH2 [SEQ ID NO 172], for which the “INS1e assay EC50 GLP-1 R n1” value stood at 39.6 pM, the “INS1e assay EC50 GLP-1 R n2” value amounted to 28 pM and the “INS1e assay EC50 Mean pM GLP-1R” value is 33.8 pM.

With H[Aib]EGS[αMeF]TSDV[αMeS]S[αMeF]LEGEAA[αMeK]E[αMeF]IA[αMeF]VVK([Ahx-Ahx-Dodecylbenzoate])GG-NH2 [SEQ ID NO 177], the “INS1e assay EC50 GLP-1 R n1” value came out at 266 pM, the “INS1e assay EC50 GLP-1 R n2” value worked out at 755 pM and the “INS1e assay EC50 Mean pM GLP-1R” value worked out at 510 pM.

On to B2, for which the “INS1e assay EC50 GLP-1 R n1” value worked out at 93.1 pM, the “INS1e assay EC50 GLP-1 R n2” value was determined as 269 pM and the “INS1e assay EC50 Mean pM GLP-1R” value was 181 pM.

In the case of B3, the “INS1e assay EC50 GLP-1 R n1” value was found to be 189 pM, the “INS1e assay EC50 GLP-1 R n2” value worked out at 462 pM and the “INS1e assay EC50 Mean pM GLP-1R” value was determined as 326 pM.
